Source: the nanobody polyreactivity screen of Harvey et al. (2022)

Test: yeast display, Sf9 membrane polyspecificity reagent, FACS + sequencing; frameworks hold sequencing errors
Outline: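 Nanobodies from a synthetic yeast display library (Saccharomyces cerevisiae BJ5465), induced 36–48 hours with galactose, were stained 1 hour at 4 °C with 10% biotinylated, detergent-solubilized Sf9 membrane reagent, enriched on streptavidin microbeads, then FACS-sorted. Anti-HA (expression) and streptavidin (reagent binding) fluorescence set low and high (top ~1%) gates. Polyreactivity labels come from the gate of origin. Genes were colony-PCR amplified, MiSeq 2 × 250 sequenced and filtered by CDR length.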

Sequence	polyreactivity (PSR sort gate)
QVQLVESGGGLVQAGGSLRLSCAASGRIFLYYTMGWYRQAPGKERELDAAITRSGGSTYYADSVKGRFTISRDNAKNTDYLQMNSLKPEDTAVYYCNRAYVRYVPMNYWGQGTQVTVSS	high polyreactivity
QVQLVESGGGLVQAGGSLRLSCAASGRIFNAYAIGWYRQAPGKERELVAAITVSGTRTYYADSVKGRFTISRDNAKNTVYLQMNSLKPEDTAVYYCAADIYHQPRYKYYYWGQGTQVTVSS	high polyreactivity
QVQLVESGGGLVQAGGSLRLSCAASGRIFNDYAMGWYRQAPGKERELVATYADSVKGRFTISRDNAKNTVYLQMNSLKPEDTAVYYCAADFPSFPDFRPEYDYWGQGTQVTVSS	low polyreactivity
QVQLVESGGGLVQAGGSLRLSCAASGRIFNENAMGWYRQAPGKERELVAAISRRGGTTYYADSVKGRFTISRDNAKNTVYLQMNSLIPEDTAVYYCNARYSKKGESQREYDYWGQGTQVTVSS	low polyreactivity
QVQLVESGGGLVQAGGSLRLSCAASGRIFNGYTMGWYRQAPGKEREFVATISRSGGSTYYADSVKGRFTISRDNAKNTVYLQMNSLKPEDTAVYYCAKTYPAKWEYDYWGQGTQVTVSS	low polyreactivity
QVQLVESGGGLVQAGGSLRLSCAASGRIFNHNTMGWYRQAPGKERELVAAISRSGASTYYADSVKGRFTISRDNAKNTVYLQMNSLKPEDTAVYYCNAATYADGITIYDYWGQGTQVTVSS	low polyreactivity
QVQLVESGGGLVQAGGSLRLSCAASGRIFNIYAMGWYRQAPGKERELVAAISVSGTRTYYADSVKGRFTISRDNAKNTVYLQMNSLKPEDTAVYYCAADSYGGVWTEHMYYWGQGTQVTVSS	low polyreactivity
QVQLVESGGGLVQAGGSLRLSCAASGRIFNLYDMGWYRQAPGKERELVAAIRIGDRTYYADSVKGRFTISRDNEKNTVYLQMNSLKQEDTAVYYCNREYLSNRDKRFFYWGQGTQVTVSS	low polyreactivity
QVQLVESGGGLVQAGGSLRLSCAASGRIFNPNVMGWYRQAPGKERELVAAISWSGDTTYYADSVKWRFTISRDNAKNTVYLQMNSLKPEDTEVYYCATESDGYAYENYEYWGQGTQVTVSS	high polyreactivity
QVQLVESGGGLVQAGGSLRLSCAASGRIFNRNAMGWYRQAPGKERELVAAISSDTSTNYADSVKGRFTISRDNAKNTVYLQMNSLKPEDTAVYYCAADVRRYDGYDYWGQGTQVTVSS	low polyreactivity
QVQLVESGGGLVQAGGSLRLSCAASGRIFNRYAMGWYRQAPGKERELVAAISRGGGTNYADSVKGRFTISRDNAKNTVYLQMNSLKPEDTAVYYCAAARGHNVETSTTYDRGDYWGQGTQVTVSS	low polyreactivity
QVQLVESGGGLVQAGGSLRLSCAASGRIFNRYAMGWYRQAPGKERELVAAITSGGDTNYADSVKGRFTISRDNAKNTVYLQMNSLKPEDTAVYYCNARSRGRASGYDYWGQGTQVTVSS	high polyreactivity
QVQLVESGGGLVQAGGSLRLSCAASGRIFNRYAMGWYRQAPGKERELVAAITSGGDTNYADSVKGRFTISRDNAKNTVYLQMNSLKPEETAVYYCAAYLYPWYSRYYYWGQGTQVTVSS	high polyreactivity
QVQLVESGGGLVQAGGSLRLSCAASGRIFNRYAMGWYRQAPGKERELVAAITTSADSTYADSVKGRFTISRDNAKNTVYLQMNSLKPEDTAVYYCNVASRQGSTYDYWGQGTQVTVSS	high polyreactivity
QVQLVESGGGLVQAGGSLRLSCAASGRIFNTYAMGWFRQAPGKERELVAAITRSAGRTYYADSVKGRFTISRDTAKNTVYLQMNSLKPEDTAVYYCAAQYNYGQRSGPYGYWGQGTQVTVSS	low polyreactivity
QVQLVESGGGLVQAGGSLRLSCAASGRIFNVYAMGWYRQAPGKERELVAAIRRRGDRTYYADSVKGRFTISRDNAKNTVYLQMNSLKPEDTAVYYCAKSQSAKGGYDYWGQGTQVTVSS	high polyreactivity
QVQLVESGGGLVQAGGSLRLSCAASGRIFNWYAMGWYRQAPGKERELVARISSGDITSYADSVKGRFTISRDNAKNTVYLQMNSLKPEDTAVYYCAARQWFLYDYWGHGTQVTVSS	low polyreactivity
QVQLVESGGGLVQAGGSLRLSCAASGRIFNYNAMGWYRQAPGKERELVAAITSSGDSTNYADSVKGRFTISRDNAKNTVYLQMNSLKPEDTAVYYCNASSPYDYDWGQGTQVTVSS	low polyreactivity
QVQLVESGGGLVQAGGSLRLSCAASGRIFNYNVMGWYRQAPGKERELVASISYSSTRTYYADSVKGRFTISRDTAKNTVYLQMNSLKPEDTAVYYCNADYYFSSYRSTFDYWGQGTQVTVSS	low polyreactivity
QVQLVESGGGLVQAGGSLRLSCAASGRIFNYYAMGWYRQAPGKEREFVAAITRSGGRTYYADSVKGRFTISRDNAKNTVYLQMNSLKPEDPAVYYCAAGRYVWREYYYWGQGTQVTVSS	high polyreactivity
QVQLVESGGGLVQAGGSLRLSCAASGRIFNYYAMGWYRQAPGKERELVAAINSGGSTYADSVKGRFTISRDNAKNTVYLQMNSLKPEDTAVYYCAKDGQLQSVRERPSGYDHWGQGTQVTVSS	low polyreactivity
QVQLVESGGGLVQAGGSLRLSCAASGRIFNYYAMGWYRQAPGKERELVAAISSGGITNYADSVKGRFTISRDNAKNTVYLQMNSLKPEDTAVYYCAADRSNRPYYRQGYDYWGQGTQVTVSS	high polyreactivity

Sequence	polyreactivity (PSR sort gate)
QVQLVESGGGLVQAGGSLRLSCAASGRIFPANDMGWYRQAPGKERELVASIRRGGITYADSVKGRFTISRDNAKNTVYLQMNSLKPEDNAVYYCNADYRGWGYHMDYWGQGTQVTVSS	low polyreactivity
QVQLVESGGGLVQAGGSLRLSCAASGRIFPANVMGWYRQAPGKETELVAAITRGDSTNYADSVKGRFTISRDNAKNTVYLQMTSLKPEDTAVYYCAAYGRYLLWDYDYWGQGTQVTVSS	low polyreactivity
QVQLVESGGGLVQAGGSLRLSCAASGRIFPAYAMGWYRQAPGKERELVAAITGGGSTNYADSVKGRFTISRDNAKNTVYLQMNSLKPEDTAVYYCNAVTGTYGWAPQAREQEDYWGQGTQVTVSS	low polyreactivity
QVQLVESGGGLVQAGGSLRLSCAASGRIFPAYAMGWYRQAPGKEREWVASIRRGGITYADSVKGRFTISRDNAKNTVYLQMNSLKPEDTAVYYCNADYRGWGYHMDYWGQGTQVTVSS	low polyreactivity
QVQLVESGGGLVQAGGSLRLSCAASGRIFPFYAMGWYRKAPGKERELVARITLSGGSTYYADSVKGRFTISRDNAKNTVYLQMNSLKPEDTAVYYCAADRTSWSVLDFDYWGQGTQVTVSS	low polyreactivity
QVQLVESGGGLVQAGGSLRLSCAASGRIFPFYAMGWYRQAPGKERELVAAISRGGSTKYADSVKGRFTISRDNAKNTVYLQMKSLKPEDTAVYYCAAAGYGGSVAAYYYWGQGTQVTVSS	high polyreactivity
QVQLVESGGGLVQAGGSLRLSCAASGRIFPFYAMGWYRQAPGKETELVAVINASGGGTYYADSVKGRFTISRDNAKNTVYLQMNSLKPEDTAVYYCAATYSPFDFYYWGQGTQVTVSS	low polyreactivity
QVQLVESGGGLVQAGGSLRLSCAASGRIFPFYVMGWYRQAPGKERELVASIRGGGSTNYADSVKGRFTISRDNAKNTVYLQMNSLKPEDTAVYYCNAARRYRAPLYDYWGQGTQVTVSS	high polyreactivity
QVQLVESGGGLVQAGGSLRLSCAASGRIFPHYAMGWYRQAPGKERELVAAISSGGRTNYADSVKGRFTISRDNAKNTVYLQMNSLKPEDTAVYYCARRYPGGYYWGQGTQVTVSS	high polyreactivity
QVQLVESGGGLVQAGGSLRLSCAASGRIFPKYAMGWYRQAPGKERELVARISVRGGRTYYADSVKGRFTISRDNAKNTVYLQMNSLKPEDTAVYYCAAYTRPAYDYWGQGTQVTVSS	high polyreactivity
QVQLVESGGGLVQAGGSLRLSCAASGRIFPSNTMGWYRQAPGKERELVADISFGGGSTYYADSVKGRFTISRDNAKNTVYLQMNSLKPEDTAVYYCNADFGFGYVSLLYEYWGQGTQVTVSS	low polyreactivity
QVQLVESGGGLVQAGGSLRLSCAASGRIFPSYAMGWYRPAPGKERELVAAITRGSTTYYADSVKGRFTISRDNAKNTVYLQMNSLKPEDTAVYYCAAEENLAYYFKYYYWGQGTQVTVSS	low polyreactivity
QVQLVESGGGLVQAGGSLRLSCAASGRIFPSYAMGWYRPAPGKERELVAAITWSGGSTYYAHSVKGRFTISRDNAKNTVYLLRNSLKPEDTAVYYCNRVERRGTYDYWGQGTQVSVSS	high polyreactivity
QVQLVESGGGLVQAGGSLRLSCAASGRIFPTNAMGWYRQAPGKERELVASITRSGSTYYADSVKGRFTISRDNAKNTVYLQMNSLKPEDTAVYYCAAYAYIFLDWGGYPYYLYEYDYWGQGTQVTVSS	low polyreactivity
QVQLVESGGGLVQAGGSLRLSCAASGRIFPTYAMGWYRQAPGKERELVASITSGVDTYYADSVKGRFTISRDNAKNTVYLQMNSLKPEDTAVYYCAARFFVWWKYDYWGQGTQVTVSS	low polyreactivity
QVQLVESGGGLVQAGGSLRLSCAASGRIFPWYTMGWYRQAPGKERELVAAITSGGNTDYADSVKGRFTISRDNAKNTVYLQMNSLKPEDTAVYYCAAGGYPGTTYYGYDYWGQGTQVTVSS	low polyreactivity
QVQLVESGGGLVQAGGSLRLSCAASGRIFPWYTMGWYRQAPGKERELVAVISSGGRTHYADSVKGRFTISRDNAKNTVYLQMNSLKPEDTAVYYCAAESRYQRYDYWGQGTQVTVSS	high polyreactivity
QVQLVESGGGLVQAGGSLRLSCAASGRIFPYYAMGWSRQAPGKEREFVAAITKRGGSTSYADSVKGRFTISRDNAKNTVYLQMNSLKPQDTAVYYCNARLYRGQDRYDYWGQGTQVTVSS	low polyreactivity
QVQLVESGGGLVQAGGSLRLSCAASGRIFPYYAMGWYRQAPGKEREFVAAITRRGTSTYYADSVKGRFTISRDNAKNTVYLQMNSLKPEDTAVYYCNKDIISLSRSYGYWGQGTQVTVSS	high polyreactivity
QVQLVESGGGLVQAGGSLRLSCAASGRIFPYYAMGWYRQAPGKERELVAAISQSDGSTYYADSVKGRFTISRDNEKNTVYLQMNSLKPEVTAVYYWAKRQASYTQHRKGRGDYWGQGTQVTVSS	low polyreactivity
QVQLVESGGGLVQAGGSLRLSCAASGRIFPYYAMGWYRQAPGKERELVAAISYSGGRTYYADSVKGRFTISRDNAKNTVYLQMNSLKPEDTAVYYCSAVVYLGYEYDYWGQGTQVTVSS	low polyreactivity
